B1: DNA mismatch repair protein Mlh1 (Homo sapiens), P40692 (parent)
chain: MSFVAGVIRRLDETVVNRIAAGEVIQRPANAIKEMIENCLDAKSTSIQVIVKEGGLKLIQIQDNGTGIRKEDLDIVCERFTTSKLQSFEDLASISTYGFRGEALASISHVAHVTITTKTADGKCAYRASYSDGKLKAPPKPCAGNQGTQITVEDLFYNIATRRKALKNPSEEYGKILEVVGRYSVHNAGISFSVKKQGETVADVRTLPNASTVDNIRSIFGNAVSRELIEIGCEDKTLAFKMNGYISNANYSVKKCIFLLFINHRLVESTSLRKAIETVYAAYLPKNTHPFLYLSLEISPQNVDVNVHPTKHEVHFLHEESILERVQQHIESKLLGSNSSRMYFTQTLLPGLAGPSGEMVKSTTSLTSSSTSGSSDKVYAHQMVRTDSREQKLDAFLQPLSKPLSSQPQAIVTEDKTDISSGRARQQDEEMLELPAPAEVAAKNQSLEGDTTKGTSEMSEKRGPTSSNPRKRHREDSDVEMVEDDSRKEMTAACTPRRRIINLTSVLSLQEEINEQGHEVLREMLHNHSFVGCVNPQWALAQHQTKLYLLNTTKLSEELFYQILIYDFANFGVLRLSEPAPLFDLAMLALDSPESGWTEEDGPKEGLAEYIVEFLKKKAEMLADYFSLEIDEEGNLIGLPLLIDNYVPPLEGLPIFILRLATEVNWDEEKECFESLSKECAMFYSIRKQYISEESTLSGQQSEVPGSIPNSWKWTVEHIVYKALRSHILPPKHFTEDGNILQLANLPDLYKVFERC
partner: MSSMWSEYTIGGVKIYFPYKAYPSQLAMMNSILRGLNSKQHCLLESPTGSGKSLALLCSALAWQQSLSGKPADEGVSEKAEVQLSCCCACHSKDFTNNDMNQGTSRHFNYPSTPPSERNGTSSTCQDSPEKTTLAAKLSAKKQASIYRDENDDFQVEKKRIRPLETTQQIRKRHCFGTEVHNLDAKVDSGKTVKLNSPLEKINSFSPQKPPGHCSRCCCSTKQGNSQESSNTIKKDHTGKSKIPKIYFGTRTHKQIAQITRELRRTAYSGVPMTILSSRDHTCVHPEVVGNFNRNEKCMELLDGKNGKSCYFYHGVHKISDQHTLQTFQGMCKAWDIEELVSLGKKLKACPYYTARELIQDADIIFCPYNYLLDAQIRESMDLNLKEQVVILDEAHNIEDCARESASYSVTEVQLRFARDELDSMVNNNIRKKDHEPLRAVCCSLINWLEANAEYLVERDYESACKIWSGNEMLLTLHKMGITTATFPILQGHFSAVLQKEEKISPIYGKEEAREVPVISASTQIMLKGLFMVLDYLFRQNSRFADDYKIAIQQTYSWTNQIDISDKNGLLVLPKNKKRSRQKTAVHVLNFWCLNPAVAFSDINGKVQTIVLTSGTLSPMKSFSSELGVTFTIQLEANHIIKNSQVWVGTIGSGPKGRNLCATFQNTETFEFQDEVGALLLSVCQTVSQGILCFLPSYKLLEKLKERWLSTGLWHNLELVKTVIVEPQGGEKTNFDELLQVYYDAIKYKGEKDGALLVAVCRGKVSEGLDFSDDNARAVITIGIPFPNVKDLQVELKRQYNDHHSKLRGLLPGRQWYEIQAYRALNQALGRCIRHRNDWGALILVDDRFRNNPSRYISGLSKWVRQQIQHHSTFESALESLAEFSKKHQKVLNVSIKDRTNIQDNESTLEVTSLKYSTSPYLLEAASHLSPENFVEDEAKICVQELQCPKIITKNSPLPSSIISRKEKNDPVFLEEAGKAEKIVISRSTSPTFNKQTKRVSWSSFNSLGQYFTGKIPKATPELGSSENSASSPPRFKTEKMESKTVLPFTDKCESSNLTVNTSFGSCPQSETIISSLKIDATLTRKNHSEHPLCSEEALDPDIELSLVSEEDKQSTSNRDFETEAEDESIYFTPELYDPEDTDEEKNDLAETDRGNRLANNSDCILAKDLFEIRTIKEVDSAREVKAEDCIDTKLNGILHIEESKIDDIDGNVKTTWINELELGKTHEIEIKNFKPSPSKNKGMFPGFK
B2: Mothers against decapentaplegic homolog 4 (Homo sapiens), Q13485 (parent)
chain: MDNMSITNTPTSNDACLSIVHSLMCHRQGGESETFAKRAIESLVKKLKEKKDELDSLITAITTNGAHPSKCVTIQRTLDGRLQVAGRKGFPHVIYARLWRWPDLHKNELKHVKYCQYAFDLKCDSVCVNPYHYERVVSPGIDLSGLTLQSNAPSSMMVKDEYVHDFEGQPSLSTEGHSIQTIQHPPSNRASTETYSTPALLAPSESNATSTANFPNIPVASTSQPASILGGSHSEGLLQIASGPQPGQQQNGFTGQPATYHHNSTTTWTGSRTAPYTPNLPHHQNGHLQHHPPMPPHPGHYWPVHNELAFQPPISNHPAPEYWCSIAYFEMDVQVGETFKVPSSCPIVTVDGYVDPSGGDRFCLGQLSNVHRTEAIERARLHIGKGVQLECKGEGDVWVRCLSDHAVFVQSYYLDREAGRAPGDAVHKIYPSAYIKVFDLRQCHRQMQQQAATAQAAAAAQAAAVAGNIPGPGSVGGIAPAISLSAAAGIGVDDLRRLCILRMSFVKGWGPDYPRQSIKETPCWIEIHLHRALQLLDEVLHTMPIADPQPLD
B3: Cyclin-dependent kinase 4 (Homo sapiens), P11802 (parent)
chain: MATSRYEPVAEIGVGAYGTVYKARDPHSGHFVALKSVRVPNGGGGGGGLPISTVREVALLRRLEAFEHPNVVRLMDVCATSRTDREIKVTLVFEHVDQDLRTYLDKAPPPGLPAETIKDLMRQFLRGLDFLHANCIVHRDLKPENILVTSGGTVKLADFGLARIYSYQMALTPVVVTLWYRAPEVLLQSTYATPVDMWSVGCIFAEMFRRKPLFCGNSEADQLGKIFDLIGLPPEDDWPRDVSLPRGAFPPRGPRPVQSVVPEMEESGAQLLLEMLTFNPHKRISAFRALQHSYLHKDEGNPE

Variants of: B1
Conditions: with fancj_human BRIP1, Q9BX63

effect of a mutation on the interaction	Variant
with no effect	I107R

Variants of: B2
Conditions: with smad3_human SMAD3, P84022
smad3_human SMAD3, P84022, sequence (P84022 whole entry, looked up): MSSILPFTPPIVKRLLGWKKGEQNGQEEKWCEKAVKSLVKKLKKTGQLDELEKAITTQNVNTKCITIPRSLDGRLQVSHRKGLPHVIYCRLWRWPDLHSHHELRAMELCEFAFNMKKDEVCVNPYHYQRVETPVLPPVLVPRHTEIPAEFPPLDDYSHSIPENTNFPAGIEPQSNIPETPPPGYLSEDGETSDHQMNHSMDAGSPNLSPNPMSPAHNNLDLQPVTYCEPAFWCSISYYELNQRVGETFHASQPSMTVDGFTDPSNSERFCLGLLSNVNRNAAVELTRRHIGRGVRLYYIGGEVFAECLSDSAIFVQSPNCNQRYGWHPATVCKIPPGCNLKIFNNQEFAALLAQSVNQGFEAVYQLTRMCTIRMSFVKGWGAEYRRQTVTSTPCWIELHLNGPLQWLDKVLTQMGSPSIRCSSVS

Variant	effect of a mutation on the interaction
V350D	disrupting interaction strength
C324R	disrupting interaction strength
E330K	disrupting interaction strength

More lines, now with the values ahead:

effect of a mutation on the interaction	Variant
disrupting interaction strength	G352R
disrupting interaction strength	L533R

Variants of: B2
Conditions: with smad3_human SMAD3, P84022
Remark: another data set of the same source

effect of a mutation on the interaction	Variant
disrupting interaction strength	R361C
disrupting interaction strength	Y353S
with no effect	N13S

Variants of: B2
Conditions: with smad9_human SMAD9, O15198
smad9_human SMAD9, O15198, sequence (O15198 whole entry): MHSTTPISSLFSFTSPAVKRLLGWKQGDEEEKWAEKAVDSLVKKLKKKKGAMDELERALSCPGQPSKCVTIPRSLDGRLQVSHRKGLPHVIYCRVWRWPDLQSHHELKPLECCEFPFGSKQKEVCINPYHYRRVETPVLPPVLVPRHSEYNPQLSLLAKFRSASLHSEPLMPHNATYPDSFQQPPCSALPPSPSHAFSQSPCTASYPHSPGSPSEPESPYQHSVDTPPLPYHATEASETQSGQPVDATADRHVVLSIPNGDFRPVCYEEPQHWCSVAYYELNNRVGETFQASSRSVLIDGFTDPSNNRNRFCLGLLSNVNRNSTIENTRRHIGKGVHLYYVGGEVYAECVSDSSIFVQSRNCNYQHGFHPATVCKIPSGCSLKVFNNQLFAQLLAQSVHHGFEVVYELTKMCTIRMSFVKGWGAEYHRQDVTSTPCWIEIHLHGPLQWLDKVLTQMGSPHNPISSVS

effect of a mutation on the interaction	Variant
disrupting interaction strength	R361C
disrupting interaction strength	Y353S
with no effect	N13S

Variants of: B3
Conditions: with ccnd1_human CCND1, P24385
ccnd1_human CCND1, P24385, sequence (P24385 whole entry): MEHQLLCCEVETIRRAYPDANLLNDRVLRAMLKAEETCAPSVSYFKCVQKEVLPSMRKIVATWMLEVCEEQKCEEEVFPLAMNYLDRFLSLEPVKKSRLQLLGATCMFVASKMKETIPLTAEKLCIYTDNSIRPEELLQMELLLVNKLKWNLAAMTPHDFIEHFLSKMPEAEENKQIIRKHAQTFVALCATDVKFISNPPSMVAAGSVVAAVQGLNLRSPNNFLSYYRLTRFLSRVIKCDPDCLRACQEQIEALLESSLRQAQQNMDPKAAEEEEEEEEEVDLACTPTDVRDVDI

effect of a mutation on the interaction	Variant
with no effect	MATSRYEPVAEIGVGAYGTVYKAHDPHSGHFVALKSVRVPNGGGGGGGLPISTVREVALLRRLEAFEHPNVVRLMDVCATSRTDREIKVTLVFEHVDQDLRTYLDKAPPPGLPAETIKDLMRQFLRGLDFLHANCIVHRDLKPENILVTSGGTVKLADFGLARIYSYQMALTPVVVTLWYRAPEVLLQSTYATPVDMWSVGCIFAEMFRRKPLFCGNSEADQLGKIFDLIGLPPEDDWPRDVSLPRGAFPPRGPRPVQSVVPEMEESGAQLLLEMLTFNPHKRISAFRALQHSYLHKDEGNPE [R24H]

Source: IntAct's records for PubMed 25502805
